Several values for one entry are separate records, joined by “and”; a condition that tells them apart may be missing. Equal values may be shown once.
Tests used:
[1] = biological target: porcine calpain-1 (pig (Sus scrofa)) (UniProt P35750); test: SPR; calpain-1 immobilised on a CM5 chip by amino coupling (8,860 RU); PEDV S1 protein injected at 100 to 0.8 uM; room temperature; running buffer pH 5.4, 25 mM HEPES, 100 mM NaCl, 3 mM EDTA with 5 mM CaCl2; 1:1 Langmuir model; average KD of triplicates
[2] = biological target: recombinant S1 protein of PEDV strain CV777 (S1 domain of the spike protein) (porcine epidemic diarrhea virus, …, UniProt Q91AV1 1-1319, Expressed in a prokaryotic system, so not glycosylated. Construct limits are not printed: S1 is taken by convention as ending at residue 789, with the signal peptide 1-25 removed per UniProt.); test: as above; conditions: both partners purified

Molecule	Kd [1] [nM]	Kd [2]
protein S1Δb1: PEDV S1 (CV777) lacking the b1 domain (N297 to A337) (from UniProt Q91AV1 1-1319) (domain or fragment)	198000	–
recombinant S1 protein of PEDV strain OH851 (S1 domain of the spike protein) (domain or fragment)	787	–
porcine calpain-1 (enzyme, pig (Sus scrofa), UniProt P35750 1-714, looked up, calpain-1 (catalytic subunit), pig (Sus scrofa); The discussion says in general that calpain-1 is a heterodimer of a catalytic subunit and a regulatory subunit (CAPNS1); also called CAP; p-calpain-1; source: calpain-1 purified from porcine small intestinal mucus fraction III on an antibody column; recombinant p-calpain-1 from HEK 293F, Ni-NTA) MAEEVITPVYCTGVSAQVQKLRAKELGLGRHENAIKYLGQDYEQLRAHCLQSGSLFRDEAFPPVPQSLGFKELGPNSSKTYGVKWKRPTELFSNPQFIVDGATRTDICQGALGDCWLLAAIASLTLNDTLLHRVVPHGQSFQNGYAGIFHFQLWQFGEWVDVVVDDLLPTKDGKLVFVHSAQGNEFWSALLEKAYAKVNGSYEALSGGSTSEGFEDFTGGVTEWYELRKAPSDLYSIILKALERGSLLGCSIDISSVLDMEAVTFKKLVKGHAYSVTGAKQVNYQGQMVNLIRMRNPWGEVEWTGAWSDGSSEWNGVDPYQRDQLRVRMEDGEFWMSFRDFLREFTRLEICNLTPDALKSQRVRNWNTTLYEGTWRRGSTAGGCRNYPATFWVNPQFKIRLEETDDPEDDYGGRESGCSFVLALMQKHRRRERRFGRDMETIGFAVYEVPPELVGQPVHLKRDFFLANASRARSEQFINLREVSTRFRLPPGEYVVVPSTFEPNKEGDFVLRFFSEKKAGTQELDDQVQAILPDEQVLSEEEIDENFKALFRQLAGEDMEISVRELRTILNRIISKHKDLRTKGFSLESCRSMVNLMDRDGNGKLGLVEFNILWNRIRNYLSIFRKFDLDKSGSMSAYEMRMAIESAGFKLNKKLFELIITRYSEPDLAVDFDNFVCCLVRLETMFRFFKTLDTDLDGVVTFDLFKWLQLTMFA	–	1070 nM and 2500 nM

Source: article PMC9600339, “Calpain-1: a Novel Antiviral Host Factor Identified in Porcine Small Intestinal Mucus” (mBio, 2022)
